Results reported in article PMC3068846.

Target: DivL DHp and CA domains fused to YFP (Caulobacter crescentus)
Experiment: FRET or BRET

DivL DHp and CA domains fused to YFP (Caulobacter crescentus), sequence (Q9RQQ9 547-758): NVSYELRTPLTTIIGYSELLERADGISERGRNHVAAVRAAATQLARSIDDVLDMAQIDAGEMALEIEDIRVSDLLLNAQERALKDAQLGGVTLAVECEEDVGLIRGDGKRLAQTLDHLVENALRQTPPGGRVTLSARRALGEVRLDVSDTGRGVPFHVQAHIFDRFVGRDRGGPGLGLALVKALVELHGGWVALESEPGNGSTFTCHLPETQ

Substance: DivK~P-CFP (DivK-CFP phosphorylated by DivJ and ATP) (natural protein)
- FRET efficiency relative to the longer version of DivL: 85%
